Measured values from patent publication US20040171019A1, “PIN1 peptidyl-prolyl isomerase polypeptides, their crystal structures, and use thereof for drug design” (Agouron Pharmaceuticals, Inc., priority 2002, published 2004).

Molecular target: 6His-PPIase domain of PIN1 (human) (UniProt Q13526)
Test: fluorescence polarization competition; free Pintide displaces fluorescein-tagged Pintide from the 6His-PPIase domain of PIN1

Pintide (WFYpSPFLE) without the fluorescein tag (peptide)
IC50: 7 to 10 µM
